Test results reported in PMC8926151 (Science (New York, N.Y.), 2021).

B1: RGS7-Gβ5 signaling complex (complex)
chain 1: MAQGNNYGQTSNGVADESPNMLVYRKMEDVIARMQDEKNGIPIRTVKSFLSKIPSVFSGSDIVQWLIKNLTIEDPVEALHLGTLMAAHGYFFPISDHVLTLKDDGTFYRFQTPYFWPSNCWEPENTDYAVYLCKRTMQNKARLELADYEAESLARLQRAFARKWEFIFMQAEAQAKVDKKRDKIERKILDSQERAFWDVHRPVPGCVNTTEVDIKKSSRMRNPHKTRKSVYGLQNDIRSHSPTHTPTPETKPPTEDELQQQIKYWQIQLDRHRLKMSKVADSLLSYTEQYLEYDPFLLPPDPSNPWLSDDTTFWELEASKEPSQQRVKRWGFGMDEALKDPVGREQFLKFLESEFSSENLRFWLAVEDLKKRPIKEVPSRVQEIWQEFLAPGAPSAINLDSKSYDKTTQNVKEPGRYTFEDAQEHIYKLMKSDSYPRFIRSSAYQELLQAKKK
chain 2: GLHENETLASLKSEAESLKGKLEEERAKLHDVELHQVAERVEALGQFVMKTRRTLKGHGNKVLCMDWCKDKRRIVSSSQDGKVIVWDSFTTNKEHAVTMPCTWVMACAYAPSGCAIACGGLDNKCSVYPLTFDKNENMAAKKKSVAMHTNYLSACSFTNSDMQILTASGDGTCALWDVESGQLLQSFHGHGADVLCLDLAPSETGNTFVSGGCDKKAMVWDMRSGQCVQAFETHESDINSVRYYPSGDAFASGSDDATCRLYDLRADREVAIYSKESIIFGASSVDFSLSGRLLFAGYNDYTINVWDVLKGSRVSILFGHENRVSTLRVSPDGTAFCSGSWDHTLRVWA
B2: human GPR158 receptor (receptor, UniProt Q5T848 24-1215, looked up)
chain: ASRDPQGRPDSPRERTPKGKPHAQQPGRASASDSSAPWSRSTDGTILAQKLAEEVPMDVASYLYTGDSHQLKRANCSGRYELAGLPGKWPALASAHPSLHRALDTLTHATNFLNVMLQSNKSREQNLQDDLDWYQALVWSLLEGEPSISRAAITFSTDSLSAPAPQVFLQATREESRILLQDLSSSAPHLANATLETEWFHGLRRKWRPHLHRRGPNQGPRGLGHSWRRKDGLGGDKSHFKWSPPYLECENGSYKPGWLVTLSSAIYGLQPNLVPEFRGVMKVDINLQKVDIDQCSSDGWFSGTHKCHLNNSECMPIKGLGFVLGAYECICKAGFYHPGVLPVNNFRRRGPDQHISGSTKDVSEEAYVCLPCREGCPFCADDSPCFVQEDKYLRLAIISFQALCMLLDFVSMLVVYHFRKAKSIRASGLILLETILFGSLLLYFPVVILYFEPSTFRCILLRWARLLGFATVYGTVTLKLHRVLKVFLSRTAQRIPYMTGGRVMRMLAVILLVVFWFLIGWTSSVCQNLEKQISLIGQGKTSDHLIFNMCLIDRWDYMTAVAEFLFLLWGVYLCYAVRTVPSAFHEPRYMAVAVHNELIISAIFHTIRFVLASRLQSDWMLMLYFAHTHLTVTVTIGLLLIPKFSHSSNNPRDDIATEAYEDELDMGRSGSYLNSSINSAWSEHSLDPEDIRDELKKLYAQLEIYKRKKMITNNPHLQKKRCSKKGLGRSIMRRITEIPETVSRQCSKEDKEGADHGTAKGTALIRKNPPESSGNTGKSKEETLKNRVFSLKKSHSTYDHVRDQTEESSSLPTESQEEETTENSTLESLSGKKLTQKLKEDSEAESTESVPLVCKSASAHNLSSEKKTGHPRTSMLQKSLSVIASAKEKTLGLAGKTQTAGVEERTKSQKPLPKDKETNRNHSNSDNTETKDPAPQNSNPAEEPRKPQKSGIMKQQRVNPTTANSDLNPGTTQMKDNFDIGEVCPWEVYDLTPGPVPSESKVQKHVSIVASEMEKNPTFSLKEKSHHKPKAAEVCQQSNQKRIDKAEVCLWESQGQSILEDEKLLISKTPVLPERAKEENGGQPRAANVCAGQSEELPPKAVASKTENENLNQIGHQEKKTSSSEENVRGSYNSSNNFQQPLTSRAEVCPWEFETPAQPNAGRSVALPASSALSANKIAGPRKEEIWDSFKV

What was measured:
[1] = molecular target: B2; test: cryo-EM structure
[2] = molecular target: the molecule itself; test: cryo-EM structure

## B1
[1]
  stoichiometry N: 1 RGS7-Gβ5 complex per GPR158 homodimer

## B2
[2]
  stoichiometry N: 2
